{"source": "paper PMC8509827", "molecular_target": "ArsR6 (Flag-tagged, in the complemented strain C[change]) (Brucella suis S2)", "test": "cross-linking", "data": [{"substance": "ArsR6 (Flag-tagged, in the complemented strain C[change]) (natural protein)", "values": [{"measurement": "stoichiometry N", "result": 2}]}]}
